In paper PMC3433420, “Comprehensive Binary Interaction Mapping of SH2 Domains via Fluorescence Polarization Reveals Novel Functional Diversification of ErbB Receptors” (PLoS ONE, 2012):
“And” between values parts separate entries of the source, which are not always exact repeats. Equal entries are not always repeated. Non-standard residues stand in square brackets, D forms with d. No end group written: not given here. pY = N[C@@H](Cc1ccc(OP(=O)(O)O)cc1)C(=O)O; Rhodamine = not defined here

Key:
Assay in all cases: peptide or protein array; SH2/PTB proteins spotted on aldehyde slides, rhodamine peptide titrated in buffer B (20 mM HEPES, 100 mM KCl, 0.1% Tween-20, 5 mM DTT, pH 7.8), 1 h at room temperature; replicate assays
Settings in all cases: both partners purified
PLCG2 tandem SH2 domains = target: T1, PLCG2 tandem SH2 domains (human)
T1 construct: PLCG2, human; also called PLCG2-NC; source: bacterial expression, purified
T1 sequence (P16885 whole entry, looked up): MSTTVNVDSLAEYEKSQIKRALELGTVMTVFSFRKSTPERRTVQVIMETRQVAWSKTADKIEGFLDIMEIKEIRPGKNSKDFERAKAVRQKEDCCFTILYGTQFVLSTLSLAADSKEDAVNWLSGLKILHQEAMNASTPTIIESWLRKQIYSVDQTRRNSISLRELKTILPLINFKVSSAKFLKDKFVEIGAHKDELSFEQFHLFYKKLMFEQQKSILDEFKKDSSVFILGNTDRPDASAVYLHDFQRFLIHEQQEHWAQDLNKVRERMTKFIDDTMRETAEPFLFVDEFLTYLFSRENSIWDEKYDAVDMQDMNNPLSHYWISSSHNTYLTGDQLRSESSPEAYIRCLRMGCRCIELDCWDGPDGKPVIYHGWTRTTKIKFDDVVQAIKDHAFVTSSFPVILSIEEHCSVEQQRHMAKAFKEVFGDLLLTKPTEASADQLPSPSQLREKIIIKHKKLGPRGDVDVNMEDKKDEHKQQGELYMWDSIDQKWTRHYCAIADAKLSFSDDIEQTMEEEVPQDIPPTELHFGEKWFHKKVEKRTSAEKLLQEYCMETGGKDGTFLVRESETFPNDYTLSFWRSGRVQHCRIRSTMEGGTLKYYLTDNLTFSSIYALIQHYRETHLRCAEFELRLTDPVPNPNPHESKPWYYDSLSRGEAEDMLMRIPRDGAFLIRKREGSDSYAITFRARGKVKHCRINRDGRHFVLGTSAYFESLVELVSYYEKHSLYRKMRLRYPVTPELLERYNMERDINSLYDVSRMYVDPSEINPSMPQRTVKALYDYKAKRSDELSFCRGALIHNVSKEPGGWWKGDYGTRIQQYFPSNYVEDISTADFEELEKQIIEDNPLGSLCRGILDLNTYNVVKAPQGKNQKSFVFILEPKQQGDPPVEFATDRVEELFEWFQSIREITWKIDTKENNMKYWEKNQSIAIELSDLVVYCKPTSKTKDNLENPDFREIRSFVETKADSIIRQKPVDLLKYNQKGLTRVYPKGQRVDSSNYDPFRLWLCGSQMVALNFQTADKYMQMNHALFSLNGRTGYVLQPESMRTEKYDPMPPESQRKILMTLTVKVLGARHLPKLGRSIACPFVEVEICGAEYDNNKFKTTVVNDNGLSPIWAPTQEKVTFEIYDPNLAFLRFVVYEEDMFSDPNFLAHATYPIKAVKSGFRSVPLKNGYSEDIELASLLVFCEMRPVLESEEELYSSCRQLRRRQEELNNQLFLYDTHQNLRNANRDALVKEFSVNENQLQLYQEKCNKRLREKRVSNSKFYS

PTK6 SH2 domain = target: T2, PTK6 SH2 domain (human, UniProt Q13882 78-170)
T2 construct: PTK6, human; source: bacterial expression, purified

GRB10 SH2 domain = target: T3, GRB10 SH2 domain (human, UniProt Q13322 493-574)
T3 construct: GRB10, human; source: bacterial expression, purified
T3 sequence (looked up): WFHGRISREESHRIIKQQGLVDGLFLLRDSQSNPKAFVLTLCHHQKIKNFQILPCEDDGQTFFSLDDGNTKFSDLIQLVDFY

SHC1 domain construct = target: T4, SHC1 domain construct (human)
T4 chain: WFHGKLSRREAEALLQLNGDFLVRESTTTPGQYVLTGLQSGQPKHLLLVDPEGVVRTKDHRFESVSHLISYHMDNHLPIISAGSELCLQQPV

SH2D2A SH2 domain = target: T5, SH2D2A SH2 domain (human, UniProt Q9NP31 95-186)
T5 construct: SH2D2A, human; source: bacterial expression, purified

SH2B3 SH2 domain = target: T6, SH2B3 SH2 domain (human, UniProt Q9UQQ2 364-462)
T6 construct: SH2B3, human; source: bacterial expression, purified

[1] = target: T7, PIK3R1 tandem SH2 domains (human, UniProt P27986 1-724)
T7 construct: PIK3R1, human; also called PIK3R1-NC; source: bacterial expression, purified

SH2D1A SH2 domain = target: T8, SH2D1A SH2 domain (human, UniProt O60880 6-104)
T8 construct: SH2D1A, human; source: bacterial expression, purified
T8 sequence (looked up): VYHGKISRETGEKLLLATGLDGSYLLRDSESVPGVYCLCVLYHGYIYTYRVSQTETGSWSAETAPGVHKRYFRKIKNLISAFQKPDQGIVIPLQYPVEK

SYK tandem SH2 domains = SYK tandem SH2 domains (human)

T2 sequence (Q13882 78-170): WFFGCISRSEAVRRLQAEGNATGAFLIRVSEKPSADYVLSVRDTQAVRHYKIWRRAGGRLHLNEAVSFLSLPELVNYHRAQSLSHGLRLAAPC
T7 sequence (P27986 whole entry, the tested form may be a part): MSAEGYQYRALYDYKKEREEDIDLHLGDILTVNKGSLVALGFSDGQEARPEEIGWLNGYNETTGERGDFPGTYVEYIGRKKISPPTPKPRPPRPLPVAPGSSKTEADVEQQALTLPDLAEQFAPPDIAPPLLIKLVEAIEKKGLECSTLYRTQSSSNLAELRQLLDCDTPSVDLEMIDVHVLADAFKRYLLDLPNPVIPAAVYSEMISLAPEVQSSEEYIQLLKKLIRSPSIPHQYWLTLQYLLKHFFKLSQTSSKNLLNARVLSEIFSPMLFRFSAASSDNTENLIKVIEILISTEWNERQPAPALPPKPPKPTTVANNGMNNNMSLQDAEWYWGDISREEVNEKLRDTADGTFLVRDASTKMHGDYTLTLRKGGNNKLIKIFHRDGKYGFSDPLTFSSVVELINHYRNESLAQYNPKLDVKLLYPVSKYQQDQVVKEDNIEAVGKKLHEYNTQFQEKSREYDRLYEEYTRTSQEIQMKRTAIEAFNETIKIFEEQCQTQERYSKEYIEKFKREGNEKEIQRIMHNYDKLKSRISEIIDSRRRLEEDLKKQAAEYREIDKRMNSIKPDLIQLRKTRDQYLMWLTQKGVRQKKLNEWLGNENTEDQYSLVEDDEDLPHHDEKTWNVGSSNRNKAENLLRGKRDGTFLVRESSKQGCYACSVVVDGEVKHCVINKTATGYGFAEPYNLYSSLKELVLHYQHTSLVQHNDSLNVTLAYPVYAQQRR
T6 sequence (Q9UQQ2 364-462): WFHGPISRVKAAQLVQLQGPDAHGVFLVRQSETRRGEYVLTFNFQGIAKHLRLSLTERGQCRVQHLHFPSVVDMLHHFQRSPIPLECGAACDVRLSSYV
T5 sequence (Q9NP31 95-186): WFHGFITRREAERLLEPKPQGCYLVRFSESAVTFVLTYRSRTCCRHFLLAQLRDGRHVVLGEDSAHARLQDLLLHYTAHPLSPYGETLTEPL

Binder: Rhodamine-ETDG[pY]VAPLTCSD (reading uncertain) [ErbB2 pY1127 phosphopeptide, rhodamine-labelled, for protein microarrays]
- Kd (PLCG2 tandem SH2 domains): 578 nM and 1600 nM
- Kd (PTK6 SH2 domain): 4180 nM and 1570 nM
- Kd (GRB10 SH2 domain): 1900 nM and 2340 nM
- Kd (SHC1 domain construct): 820 nM and 978 nM
- Kd (SH2D2A SH2 domain): 2750 nM
- Kd (SH2B3 SH2 domain): 1380 nM and 2300 nM
- Kd [1]: 10.9 nM and 10 nM
- Kd (SH2D1A SH2 domain): 1600 nM and 4590 nM
- Kd (SYK tandem SH2 domains): 1300 nM and 957 nM
